Results: the domain aggregation screens of Martell et al. (2025)

Experiment: soluble fraction after stress (log2 fold change); higher = more stays soluble; pooled small domains, quantitative proteomics
Conditions: stress: 75 degC
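Also: 20 min heating vs room temperature control held 20 min.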

Which “soluble fraction (log2)” value does the source give for “HMKIVQHQLQLPVHVAGKFKGMFYKSDFVMSEDYDDDGNMILAVRLPLVDWNKFLKRTDNELSQYIKVTP” here?
Its value is -1.64.

With “HMKKALTAEQEARVRELYFRGINYYSANRYQDAIAEWRKVLAIDPNHEKAKNNIRQTLILLK” as the sequence, how does the “soluble fraction (log2)” value read?
Its value is -1.26.

With “HMKKDNLKKIKSIDEDIENELFKLGIYHFEQISIWSSKNAEWIENFLNLPNYVRANQWVEQAKILK” as the sequence, how does the “soluble fraction (log2)” value read?
Its value is -1.57.

Which “soluble fraction (log2)” value does the source give for “HMKKDRKKMLKEGIVLFEKILRGMELSPTSEPLKKVLTSFNIQNKEDLYVKLGAGVISSEEVIKELKKK” here?
Its value is -0.0286.

Which “soluble fraction (log2)” value does the source give for “HMKKILIVTNRSAGMVVYTIPEEGIRREFTPGETKKIPFEELEKLAYLSGGRTLMENFLKIVDTETTEELG” here?
Its value is -2.24.

With “HMKKIYEEVSEAILTMIKNGTLKPGDKLLPVHQLAEQFQVGRSAVREALSALRAMGLIEMKQGEGTYVKNF” as the sequence, how does the “soluble fraction (log2)” value read?
The value was -1.52.

With “HMKKKVDSENLLLDILKQMQPQASTNVLRKMLTNQRISVDDQIIHRAKHVVQEGQTVEIHPKP” as the sequence, how does the “soluble fraction (log2)” value read?
Its value is -0.0451.

With “HMKKLPEKFDYNEISGLRIEAQQKLNEFQPLNIGQASRISGVTPADISVLLVYLEQLKYSNPDLFFKLNPD” as the sequence, how does the “soluble fraction (log2)” value read?
Its value is -1.52.

For “HMKKLTAEEIQEAKDILEKIQEIPNFKKIFGDDTIKALENSTKTGVLLPDNIISKIHTLMIRFGIK”, which “soluble fraction (log2)” value is on record?
Its value is -0.202.

With “HMKKMEEEFALFNAWVDRRLGIPLAAYKENQMQRRILTIMENSGAKTLREYQQLIEGDEGVRAAFLAHIT” as the sequence, how does the “soluble fraction (log2)” value read?
Its value is -2.15.

With “HMKKPIYLTIANDIEKKIFNNDYPKNERLPSERNLAEEYGVTRMTIRNSIEYLVSKGLLEKRLGSGNYVKR” as the sequence, how does the “soluble fraction (log2)” value read?
Its value is -1.55.

With “HMKKPLEYIDVDKREDFPPVPNGMRYIHFYGGTKNYRAYIAPEDISRADFMEQYPEYVPEHN” as the sequence, how does the “soluble fraction (log2)” value read?
Its value is 0.237.

For “HMKKSTLLLFFLKELLEGKKISLKSFALENDINIRTAQRYIEDIEEAFPDNLLKENDFYSFV”, which “soluble fraction (log2)” value is on record?
Its value is -2.89.

For “HMKKTETVRFTTNVTHGTKIKETDVEVVKISNSALPDKVVKNKTEVIGKYATADLFKGDFATENKVTD”, which “soluble fraction (log2)” value is on record?
The value was 0.142.

For “HMKKTIIVHVVGEVNTPGIVELNEGARIIDAINGAGGKTEEADMSKINLAYVIEDGSQIYVPSIYE”, which “soluble fraction (log2)” value is on record?
Its value is -0.387.

With “HMKKTITISNYINVRDFATMSELPVNSILSVLMKNGIFVSLNEKIDFDTAWLVGSELGLEVKQKQG” as the sequence, how does the “soluble fraction (log2)” value read?
The value was -1.58.

For “HMKKYEFIEDLPGVGPATAQKLRDLGYHTVESLAMATARELEPIGVGEKKAFSMIEAARSAIGFS”, which “soluble fraction (log2)” value is on record?
The value was 0.284.

Which “soluble fraction (log2)” value does the source give for “HMKKYISEEQAKQAALETAGGGSVVKIKFTTDDGIKVYEIDIINGNYEYEITVHAETGKILDVDKERIH” here?
Its value is -1.6.

For “HMKLELSNDFYNKIRLARKENGLTQEDLAEKLNMKVGVIQKIENGVRQTDSNLMKISKFLGVEIYVE”, which “soluble fraction (log2)” value is on record?
The value was -1.98.

For “HMKLPNGYGGIAKLSGKRRNPWRVRVTKGWSVDEQTGKAKQLFSTLGYYPTRKDALAALSAYNQNP”, which “soluble fraction (log2)” value is on record?
Its value is -1.64.

With “HMKLRLGVNIDPVATVRNARGSAYPDPVRAAIIAQEAGADGITAHLREDRRHIVDQDITSIIKAIDIPLNF” as the sequence, how does the “soluble fraction (log2)” value read?
Its value is -0.129.

Which “soluble fraction (log2)” value does the source give for “HMKLRSIQEQVQYLEKVDNQKAMQIILNMNDKASAVQILRNMKKEKAAAILAQMDPLQAAQILEDLA” here?
Its value is -0.34.

With “HMKLSDDIIVDTIKEIIEENKNMIEQRKMGAMGPLMGKAMAKFKGKADGQTVSNVIKDEILNIIN” as the sequence, how does the “soluble fraction (log2)” value read?
The value was -0.0773.

For “HMKLSIEDLAAELIRKIEAGDIGNEQGKMPSERELLAIYPVSRYTLRQALNKLSKMGWIYQMQGRGSYIRF”, which “soluble fraction (log2)” value is on record?
Its value is -1.48.

With “HMKLSNELLNAIMLIKKGIRNPTSLAQRLNTDTQYAKNLLEHLKMTGLINEHSRLTSRGLDIFHQK” as the sequence, how does the “soluble fraction (log2)” value read?
The value was 0.356.

For “HMKLTEEEFNAKRKAYLDRLETLNDEAVIKATFMEAASGLGLQKGSAEFGDLRKYFVDRIVDIK”, which “soluble fraction (log2)” value is on record?
Its value is 1.01.

For “HMKLTEGETIFLNESDTADWKKIPGIGSVYASRIVKYRNLLGGFVSVNQLREVYGIDDELFAKIYPYI”, which “soluble fraction (log2)” value is on record?
The value was 0.085.

For “HMKLTESQLHKFTNDAVLAHIRNLIEFKGAFTEDDIEPIIRDRAAVYGIDLEDEDYKKVKTDVEYHFK”, which “soluble fraction (log2)” value is on record?
The value was -0.0402.

With “HMKLVELVGSPKQIAWAEDIRKNMISYLSALVRKYEAENRPARAEKRAKDMEILSNIKEASWFIENRS” as the sequence, how does the “soluble fraction (log2)” value read?
Its value is -0.733.

With “HMKMAKTIKEIAEEIGVSKQAVFKKIKQVPLSTEIEKFISTVDGKKLVSVDGENLIKQAFQR” as the sequence, how does the “soluble fraction (log2)” value read?
The value was 0.355.

With “HMKMLKAPIPGTIIEVKVNPGQTVNDGDVAVVLEAMKMESDIHFNSSGKVKKIHVNKGDSVQEGDDLIELE” as the sequence, how does the “soluble fraction (log2)” value read?
The value was 0.0235.

Which “soluble fraction (log2)” value does the source give for “HMKMNRELNQRQIKMLDYLSVNPKTTRKQYTKMMGISFMTSYRDIQELIDKAYIISKGQGRGTYYILAN” here?
Its value is -0.709.

With “HMKMQIGEIIRKYRKSNHMTQEEMAERLGVSAPAVNKWENGNSMPDIMLLAPITRLLGISLDELLSFE” as the sequence, how does the “soluble fraction (log2)” value read?
The value was -2.26.

With “HMKMSVEEVNLSPRTTNALINNDIKTMKDLVALTDTELRDLKGFGSKAYEEVKEKLSELGLSTQ” as the sequence, how does the “soluble fraction (log2)” value read?
The value was 0.503.

With “HMKMSVKNEIISLLEKNRDTSISGQVIADSLNVTRAAVWKAIKVLKEEGYNIDGTPNKGYILLGNN” as the sequence, how does the “soluble fraction (log2)” value read?
The value was -1.22.
